Earlier results on 1 substance are cited in article PMC7614842.

In general, Kd refers to the concentration at which binding is half-saturated.

This series deals with C3d C3d (Mus musculus) (UniProt P01027).
Sequence of UniProt P01027 (P01027 1002-1303): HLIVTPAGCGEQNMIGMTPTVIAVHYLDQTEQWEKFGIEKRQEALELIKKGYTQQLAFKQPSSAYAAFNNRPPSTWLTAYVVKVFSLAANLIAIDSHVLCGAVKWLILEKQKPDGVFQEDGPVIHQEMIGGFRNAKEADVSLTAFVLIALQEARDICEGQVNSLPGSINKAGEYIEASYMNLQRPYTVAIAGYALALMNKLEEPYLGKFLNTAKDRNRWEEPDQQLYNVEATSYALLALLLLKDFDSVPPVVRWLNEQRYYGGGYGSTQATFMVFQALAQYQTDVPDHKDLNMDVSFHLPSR

For the substance CR2 (from UniProt P19070), the Kd is 140 nM.
